Reference: patent publication US20170306033A1 (Amgen, published 2017)
Numbering of substitutions follows the chain as printed.

T1: human PAC1 receptor (human, UniProt P41586 21-468)
T1 sequence: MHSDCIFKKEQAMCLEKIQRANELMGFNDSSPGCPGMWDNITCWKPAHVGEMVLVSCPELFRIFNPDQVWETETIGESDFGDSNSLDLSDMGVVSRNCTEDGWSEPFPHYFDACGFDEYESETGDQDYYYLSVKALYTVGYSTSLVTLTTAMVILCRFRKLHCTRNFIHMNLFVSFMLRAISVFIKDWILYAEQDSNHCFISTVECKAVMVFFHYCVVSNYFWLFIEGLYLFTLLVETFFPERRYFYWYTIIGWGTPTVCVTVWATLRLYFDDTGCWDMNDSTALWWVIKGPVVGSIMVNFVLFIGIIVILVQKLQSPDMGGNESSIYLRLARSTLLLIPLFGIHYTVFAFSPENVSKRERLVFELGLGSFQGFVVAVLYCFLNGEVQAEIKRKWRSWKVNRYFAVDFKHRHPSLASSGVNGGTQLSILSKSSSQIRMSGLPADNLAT

B1: iPS:327875 (bispecific antibody, human IgG1, kappa, N297G)
light 1: not shown
heavy 1: not shown
light 2: EIVLTQSPGTLSLSPGERATLSCRASQSVSSGYLTWYQQKPGQAPRLLIYGASSRATGIPDRFSGSGSGTDFTLTISRLEPEDFAVYYCQQYGNSLSRFGKGTKLEIKRTVAAPSVFIFPPSDEQLKSGTASVVCLLNNFYPREAKVQWKVDNALQSGNSQESVTEQDSKDSTYSLKSTLTLSKADYEKHKVYACEVTHQGLSSPVTKSFNRGEC
heavy 2: QVQLVESGGGVVQPGRSLRLSCAASGFTFSSYGMHWVRQAPGKELEWVAVIWYDGSNKYYAESVKGRFIISRDKSKNTLYLQMNSLRAEDTAVYYCARAGGIAAAGLYYYYGMDVWGQGTTVTVSSASTKGPSVFPLAPSSKSTSGGTAALGCLVKDYFPEPVTVSWNSGALTSGVHTFPAVLQSSGLYSLESVVTVPSSSLGTQTYICNVNHKPSNTKVDKKVEPKSCDKTHTCPPCPAPELLGGPSVFLFPPKPKDTLMISRTPEVTCVVVDVSHEDPEVKFNWYVDGVEVHNAKTKPCEEQYGSTYRCVSVLTVLHQDWLNGKEYKCKVSNKALPAPIEKTISKAKGQPREPQVYTLPPSRKEMTKNQVSLTCLVKGFYPSDIAVEWESNGQPENNYKTTPPVLKSDGSFFLYSKLTVDKSRWQQGNVFSCSVMHEALHNHYTQKSLSLSPGK
B2: iPS:327872 (bispecific antibody, human IgG1, kappa, N297G)
light 1: DIQMTQSPSSLSASVGDRITITCRASQSISRYLNWYQQKPGKAPKLLIYAASSLQSGIPSRFSGSGSGTDFTLTINSLQPEDFATYFCQQSYSPPFTFGQGTKVDIKRTVAAPSVFIFPPSDEQLKSGTASVVCLLNNFYPREAKVQWKVDNALQSGNSQESVTEQDSKDSTYSLESTLTLSKADYEKHKVYACEVTHQGLSSPVTKSFNRGEC
heavy 1: not shown
light 2: B1 light 2 with K101Q
heavy 2: not shown
B3: iPS:327876 (bispecific antibody, human IgG1, kappa, N297G)
light 1: B2 light 1
heavy 1: not shown
light 2: B1 light 2 with K101Q
heavy 2: not shown
B4: iPS:327877 (bispecific antibody, human IgG1, kappa, N297G)
light 1: not shown
heavy 1: not shown
light 2: B1 light 2 with K101Q
heavy 2: not shown
B5: iPS:327740 (bispecific antibody, human IgG1, kappa, lambda, N297G)
light 1: not shown
heavy 1: not shown
light 2: QSVLTQPPSVSAAPGQKVTISCSGSSSNIGNNYVSWYQQLPGTAPKLLIYDNNKRPSGIPDRFSGSKSGTSATLGITGLQTGDEADYYCGTWDSRLSAVVFGGGTKLTVLGQPKANPTVTLFPPSSEELQANKATLVCLISDFYPGAVTVAWKADGSPVKAGVETTKPSKQSNNKYAAKSYLSLTPEQWKSHRSYSCQVTHEGSTVEKTVAPTECS
heavy 2: QVQLVESGGGVVQPGRSLRLSCAASGFTFSSFGMHWVRQAPGKGLEWVAVISFDGSIKYSVDSVKGRFTISRDNSKNTLFLQMNSLRAEDTAVYYCARDRLNYYESSGYYHYKYYGMAVWGQGTTVTVSSASTKGPSVFPLAPSSKSTSGGTAALGCLVKDYFPEPVTVSWNSGALTSGVHTFPAVLQSSGLYSLESVVTVPSSSLGTQTYICNVNHKPSNTKVDKKVEPKSCDKTHTCPPCPAPELLGGPSVFLFPPKPKDTLMISRTPEVTCVVVDVSHEDPEVKFNWYVDGVEVHNAKTKPCEEQYGSTYRCVSVLTVLHQDWLNGKEYKCKVSNKALPAPIEKTISKAKGQPREPQVYTLPPSRKKMTKNQVSLTCLVKGFYPSDIAVEWESNGQPENNYKTTPPVLKSDGSFFLYSKLTVDKSRWQQGNVFSCSVMHEALHNHYTQKSLSLSPGK
B6: iPS:327741 (bispecific antibody, human IgG1, kappa, lambda, N297G)
light 1: DIQLTQSPSFLSASVGDRVTITCRASQSIGRSLHWYQQKPGKAPKLLIKYASQSLSGVPSRFSGSGSGTEFTLTISSLQPEDFATYYCHQSSRLPFTFGPGTKVDIKRTVAAPSVFIFPPSDEQLKSGTASVVCLLNNFYPREAKVQWKVDNALQSGNSQESVTEQDSKDSTYSLESTLTLSKADYEKHKVYACEVTHQGLSSPVTKSFNRGEC
heavy 1: not shown
light 2: B5 light 2
heavy 2: B5 heavy 2
B7: iPS:327871 (bispecific antibody, human IgG2, kappa, lambda)
light 1: B6 light 1
heavy 1: QVQLVESGAEVVKPGASVKVSCKASGFTFSRFAMHWVRQAPGQGLEWMGVISYDGGNKYYAESVKGRVTMTRDTSTSTLYMELSSLRSEDTAVYYCARGYDVLTGYPDYWGQGTLVTVSSASTKGPSVFPLAPCSRSTSESTAALGCLVKDYFPEPVTVSWNSGALTSGVHTFPAVLQSSGLYSLKSVVTVPSSNFGTQTYTCNVDHKPSNTKVDKTVERKCCVECPPCPAPPVAGPSVFLFPPKPKDTLMISRTPEVTCVVVDVSHEDPEVQFNWYVDGVEVHNAKTKPREEQFNSTFRVVSVLTVVHQDWLNGKEYKCKVSNKGLPAPIEKTISKTKGQPREPQVYTLPPSREEMTKNQVSLTCLVDGFYPSDIAVEWESNGQPENNYDTTPPMLDSDGSFFLYSDLTVDKSRWQQGNVFSCSVMHEALHNHYTQKSLSLSPGK
light 2: B5 light 2 with A72T
heavy 2: QVQLVESGGGVVQPGRSLRLSCAASGFTFSSFGMHWVRQAPGKGLEWVAVISFDGSIKYSVDSVKGRFTISRDNSKNTLFLQMNSLRAEDTAVYYCARDRLNYYDSSGYYHYKYYGMAVWGQGTTVTVSSASTKGPSVFPLAPCSRSTSESTAALGCLVKDYFPEPVTVSWNSGALTSGVHTFPAVLQSSGLYSLESVVTVPSSNFGTQTYTCNVDHKPSNTKVDKTVERKCCVECPPCPAPPVAGPSVFLFPPKPKDTLMISRTPEVTCVVVDVSHEDPEVQFNWYVDGVEVHNAKTKPREEQFNSTFRVVSVLTVVHQDWLNGKEYKCKVSNKGLPAPIEKTISKTKGQPREPQVYTLPPSRKKMTKNQVSLTCLVKGFYPSDIAVEWESNGQPENNYKTTPPMLKSDGSFFLYSKLTVDKSRWQQGNVFSCSVMHEALHNHYTQKSLSLSPGK
B8: iPS:327878 (bispecific antibody, human IgG1, kappa, lambda, N297G)
light 1: B2 light 1
heavy 1: not shown
light 2: B5 light 2 with A72T
heavy 2: B5 heavy 2 with K370E
B9: iPS:327742 (bispecific antibody, human IgG1, kappa, lambda, N297G)
light 1: EIVLTQSPATLSLSPGERATLSCRASQSVGRSLHWYQQKPGQAPRLLIKYASQSLSGIPARFSGSGSGTDFTLTISSLEPEDFAVYYCHQSSRLPFTFGPGTKVDIKRTVAAPSVFIFPPSDEQLKSGTASVVCLLNNFYPREAKVQWKVDNALQSGNSQESVTEQDSKDSTYSLESTLTLSKADYEKHKVYACEVTHQGLSSPVTKSFNRGEC
heavy 1: not shown
light 2: B5 light 2
heavy 2: B5 heavy 2

Each binder was assayed against human CGRP receptor (human, UniProt Q16602 23-461; O60894 27-148) (assay: cell-based or functional assay).
Chain of human CGRP receptor (Q16602 23-461 limits assumed, chain 1 of 2): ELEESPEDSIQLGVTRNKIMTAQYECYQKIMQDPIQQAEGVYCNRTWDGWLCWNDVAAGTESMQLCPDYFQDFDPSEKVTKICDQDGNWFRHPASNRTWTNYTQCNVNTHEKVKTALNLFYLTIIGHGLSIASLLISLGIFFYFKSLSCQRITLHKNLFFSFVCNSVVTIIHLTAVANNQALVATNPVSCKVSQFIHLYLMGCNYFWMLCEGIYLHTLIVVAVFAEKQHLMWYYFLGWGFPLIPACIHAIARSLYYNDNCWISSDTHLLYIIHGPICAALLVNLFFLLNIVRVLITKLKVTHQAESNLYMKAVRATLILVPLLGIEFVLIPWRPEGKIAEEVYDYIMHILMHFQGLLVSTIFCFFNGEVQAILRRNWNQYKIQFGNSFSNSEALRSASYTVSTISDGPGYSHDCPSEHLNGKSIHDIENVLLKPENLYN
Chain of human CGRP receptor (O60894 27-148 limits assumed, chain 2 of 2): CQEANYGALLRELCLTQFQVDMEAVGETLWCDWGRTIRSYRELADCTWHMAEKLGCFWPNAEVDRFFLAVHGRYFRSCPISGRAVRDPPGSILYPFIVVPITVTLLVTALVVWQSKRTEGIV

Row | % inhibition of human CGRPR | Binder
1 | 83% | B1
2 | 80% | B2
3 | 77% | B3
4 | 72% | B4
5 | 74% | B5
6 | 83% | B6
7 | 65% | B7
8 | 75% | B8
9 | 84% | B9

Each binder was assayed against T1, human PAC1 receptor (assay: cell-based or functional assay).

Row | % inhibition of human PAC1 | Binder
10 | 10% | B1
11 | 40% | B2
12 | 11% | B3
13 | 22% | B4
14 | 58% | B5
15 | 70% | B6
16 | 68% | B7
17 | 42% | B8
18 | 96% | B9
